Source: patent US7074888B1, “Mimotopes and anti-mimotopes of human platelet glycoprotein Ib/IX” (The Research Foundation of State University of New York, priority 1995, dated 2006)
Ends that are not written are not given here.

T1: synthetic biotinylated peptide mimotope having SEQ ID NO:1 (not fully specified (N-terminus))
T1 construct: chemically synthesized (Genosys); also called biotinylated mimotope peptide
T1 peptide: AWNWRYREYV


test system: mab C-34; assay: Neutralization of mab C-34 inhibition of ristocetin-induced aggregation in citrated platelet-rich plasma by mimotope peptide; type: cell-based, human; conditions: 0.14 μM peptide, 20 μg/ml mab C-34 (FIG. 3)
Protocol: (§1) Citrated human platelet-rich plasma (PRP) was prepared by standard methods (Miller et al. 1983). For study of C-34 neutralization by mimotope peptide, 350 μL of PRP containing 150,000 platelets/μL was incubated for 10 min at 22° C. with phosphate-buffered saline (PBS), 20 μg/mL C-34 mab, or 20 μg/mL C-34 that had previously been incubated for 30 min at 22° C. with varying concentrations of peptides. The PRP was then brought to 37° C. and stirred at 1200 rpm in a Chrono-Log lumi-aggregometer (Chrono-Log Corporation, Havertown, Pa.). Aggregation was initiated by the addition of 1 mg/mL ristocetin (Helena Laboratories, Beaumont, Tex.). For screening of bacteriophage clones displaying potential anti-mimotope peptides, 150 μl of PEG/NaCl precipitated phage was incubated with 250 μl of citrated PRP for one hour at 22° C., transferred to the aggregometer, following which ristocetin was added at a final concentration of 0.8 mg/ml.
A peptide including the consensus sequence (SEQ ID NO: 38) was chemically synthesized (Genosys Biotechnologies, The Woodlands, Tex.). […] A modification of this peptide with a biotin attached to the amino-terminal alanine (N-hydroxysuccinimide hexanoic acid long chain spacer arm biotinylation) was also synthesized. One mg of the chemically synthesized biotinylated peptide was dissolved in one ml of water containing 20 μl of DMSO. […] Accordingly, approximately 10 μg of C-34 was incubated at 22° C. for 30 minutes with varying concentrations of test or control peptide, following which the mixture was added to PRP in a final volume of approximately 0.5 ml for an additional 10 minutes at 22° C. […] A similar pattern of C-34 antibody neutralization was observed when the non-biotinylated form of the peptide (having SEQ ID NO:38) was used, with half-maximal neutralization at approximately 3.0 μM.

| Molecule | neutralization of C-34 inhibition of ristocetin-induced aggregation |
| --- | --- |
| AWNWRYREYV [SEQ ID NO:1] | continued inhibition |

same assay, conditions: 0.27 μM peptide, 20 μg/ml mab C-34 (FIG. 4)

| Molecule | neutralization of C-34 inhibition of ristocetin-induced aggregation |
| --- | --- |
| AWNWRYREYV [SEQ ID NO:1] | partial neutralization |

same assay, conditions: 0.55 μM peptide, 20 μg/ml mab C-34 (FIG. 5)

| Molecule | neutralization of C-34 inhibition of ristocetin-induced aggregation |
| --- | --- |
| AWNWRYREYV [SEQ ID NO:1] | partial neutralization |

same assay, conditions: 1.1 μM peptide, 20 μg/ml mab C-34 (FIG. 6)

| Molecule | neutralization of C-34 inhibition of ristocetin-induced aggregation |
| --- | --- |
| AWNWRYREYV [SEQ ID NO:1] | partial neutralization |

same assay, conditions: 2.3 μM peptide, 20 μg/ml mab C-34 (FIG. 7)

| Molecule | neutralization of C-34 inhibition of ristocetin-induced aggregation |
| --- | --- |
| AWNWRYREYV [SEQ ID NO:1] | complete neutralization |

same assay, conditions: 20 μg/mL C-34, citrated PRP, 1 mg/mL ristocetin; read-out: half-maximal neutralization of the C-34

| Molecule | EC50 [nM] |
| --- | --- |
| WNWRYREYV [SEQ ID NO:38] | ~3000 |

test system: platelets; assay: Effect of mimotope peptide by itself on platelet aggregation and on ADP-induced aggregation; type: cell-based, human; conditions: non-specific effects

| Molecule | influence on ADP-induced aggregation |
| --- | --- |
| AWNWRYREYV [SEQ ID NO:1] | no influence |

same assay, conditions: peptide alone, PRP

| Molecule | induction of platelet aggregation by the peptide by itself |
| --- | --- |
| AWNWRYREYV [SEQ ID NO:1] | did not induce platelet aggregation |

test system: formalin-fixed platelets; assay: not given; type: cell-based, human; conditions: not given
Protocol: as §1
Further studies were undertaken with chemically synthesized peptide having SEQ ID NO:94: […]. This decapeptide was able to inhibit ristocetin-induced aggregation fully, with an IC50 occurring between 200–400 μg/mL (FIG. 9). […] In order to approximate more closely the native structure, peptides with an (Arg→Lys) substitution at position 7 were then studied. […] Whereas the […] Finally, both the wild-type GPIb alpha 228–237 peptide (SEQ ID NO:108) containing Gly at residue 233 and the PT-vWD variant with Val replacing Gly at this position (SEQ ID NO:107) were synthesized. […] Lyophilized peptides were reconstituted in PBS, pH 6.0 and 150 μL of varying dilutions incubated for 2–4 hr at 22° C. with 250 μL of formalin-fixed platelets ([…]), prior to aggregometry in which the addition of 1 U/mL purified vWF was followed by the addition of 0.9 mg/mL ristocetin.

| Molecule | IC50 for inhibition of ristocetin-induced aggregation |
| --- | --- |
| YVWKQVVDVK [SEQ ID NO:107] | approximately 400 μg/mL |

same assay, conditions: by 715 μg/mL peptide, formalin-fixed platelets

| Molecule | inhibition of ristocetin-induced aggregation |
| --- | --- |
| SEQ ID NO:104: RHVAWWRQGV decapeptide with a (Gly→Val) substitution at position 9, corresponding to the mutation observed in PT-vWD (RHVAWWRQVV) | nearly full inhibition |

same assay, conditions: formalin-fixed platelets, 1 U/mL purified vWF, 0.9 mg/mL ristocetin

| Molecule | inhibition of ristocetin-induced aggregation (extent, in words) |
| --- | --- |
| SEQ ID NO:108: wild-type GPIb alpha 228–237 peptide containing Gly at residue 233 (YVWKQGVDVK) | virtually without inhibitory activity |
| RHVAWWKQVV [SEQ ID NO:105] | retained potent inhibitory activity |
| YVWKQVVDVK [SEQ ID NO:107] | fully inhibiting |
| RHVAWWKQGV [SEQ ID NO:106] | unable to exert more than slight inhibition, except at the highest concentrations tested |

target: monoclonal antibody C-34; assay: clone count after phage biopanning on biotinylated C-34; conditions: not given

| Molecule | Frequency |
| --- | --- |
| AWNWRYREYV [C34 Clone SEQ ID NO:1] | 52 |
| KRAWWKQKWV [C34 Clone SEQ ID NO:66] | 1 |
| TQMWRAREYL [C34 Clone SEQ ID NO:5] | 2 |
| EGSWRYRKGG [C34 Clone SEQ ID NO:7] | 1 |
| MNWKHWRARH [C34 Clone SEQ ID NO:10] | 1 |
| GRRVWMLNHG [C34 Clone SEQ ID NO:14] | 2 |
| KWNWRNKKYV [C34 Clone SEQ ID NO:2] | 1 |
| LSTWRYFEYV [C34 Clone SEQ ID NO:3] | 14 |
| YLGWRYSEYV [C34 Clone SEQ ID NO:4] | 7 |
| MSKKPHLGLR [C34 Clone SEQ ID NO:19] | 1 |
| RVLRHWHPRT [C34 Clone SEQ ID NO:13] | 1 |
| GGVCKCWQCL [C34 Clone SEQ ID NO:16] | 1 |
| WRQREYWDPV [C34 Clone SEQ ID NO:6] | 1 |
| FKWREWRGKL [C34 Clone SEQ ID NO:11] | 1 |
| FVDPGRAGRG [C34 Clone SEQ ID NO:21] | 1 |
| GYHWWRNWEY [C34 Clone SEQ ID NO:8] | 2 |
| KKGRHHVTRV [C34 Clone SEQ ID NO:15] | 22 |
| PDRQVRLWVR [C34 Clone SEQ ID NO:12] | 1 |
| MHGHRRPGLA [C34 Clone SEQ ID NO:18] | 1 |
| TMWVELYSLK [C34 Clone SEQ ID NO:20] | 1 |
| FSHSYGSAIR [C34 Clone SEQ ID NO:17] | 1 |
| KGFLWRARNW [C34 Clone SEQ ID NO:9] | 1 |

Target: T1, synthetic biotinylated peptide mimotope …
Assay: phage biopanning on biotinylated mimotope peptide SEQ ID NO:1
Conditions: not given
Protocol: For studies directed towards discovering a peptide binding the mimotope peptide (SEQ ID NO:1: […]), two rounds of biopanning against the original decapeptide library were performed, using 1 µg of biotinylated mimotope peptide in the first round and 0.01 µg in the second round. Resulting yields were 3 ×10^-6% and 2 ×10^-3%, respectively.

| Molecule | binding result |
| --- | --- |
| VAKWRHWNRQ [anti-mimotope clone SEQ ID NO:99] | binds |
| KKVWMFSYNE [anti-mimotope clone SEQ ID NO:165] | binds |
| LSCRGCRAFV [anti-mimotope clone SEQ ID NO:166] | binds |
| RHVAWWRQGV [anti-mimotope clone SEQ ID NO:94] | binds |
| WRWMHWMPHA [anti-mimotope clone SEQ ID NO:159] | binds |
| LLLVGGSELT [anti-mimotope clone SEQ ID NO:164] | binds |
| RGWRWHKYWQ [anti-mimotope clone SEQ ID NO:162] | binds |
| KKWGQHRQRS [anti-mimotope clone SEQ ID NO:158] | binds |
| KRHAWMKSRL [anti-mimotope clone SEQ ID NO:163] | binds |
| AKHRWWRRPV [anti-mimotope clone SEQ ID NO:95] | binds |
| HEGCEAQDEL [anti-mimotope clone SEQ ID NO:167] | binds |
| HSPFRHVQPR [anti-mimotope clone SEQ ID NO:171] | binds |
| RWLWPRVHKT [anti-mimotope clone SEQ ID NO:170] | binds |
| RRSTWHWWHA [anti-mimotope clone SEQ ID NO:98] | binds |
| SVRHIWFHVK [anti-mimotope clone SEQ ID NO:168] | binds |
| RHRHRGFQPR [anti-mimotope clone SEQ ID NO:161] | binds |
| GTWDLWRKGS [anti-mimotope clone SEQ ID NO:169] | binds |
| AGLNHWWKHK [anti-mimotope clone SEQ ID NO:97] | binds |
| WHWLARHRTV [anti-mimotope clone SEQ ID NO:160] | binds |
| KHFMRHRHGV [anti-mimotope clone SEQ ID NO:96] | binds |
| WVRGHHREVR [anti-mimotope clone SEQ ID NO:172] | binds |
